For experiment [1], the system named is CCR4 positive and negative cells. Briefly: CCR4 expression of CCR4 positive and negative cells exposed to cytokines. To be noted: cytokines of the cervical microenvironment. It is filed as cell-based. An excerpt:
CCR4 positive and negative cells were exposed to a number of cytokines (TNF-α, TGF-β, IFN-γ, IL-4 and IL-10) known to be present in the cervical microenvironment and for which receptors were likely to be present on the tumour cells.

The subject of experiment [2] is C41 cervical cancer cell line. Briefly: CCR4 expression on C41 cells after cytokine stimulation (FACS). As to conditions: 20 ng/ml, 24 h, versus unstimulated cells. In kind it is cell-based, human. As to the method:
Dashed line: isotype control; grey line CCR4 expression; bold line; CCR4 expression after cytokine stimulation.
The most common cytokines present in a tumour are IL-10, TGF-β, FGF, TNF-α. The C41 cervical cancer cell line was stimulated in culture with different cytokines (IL-10, TNF-α, TGF-β, FGF; 20 ng/ml) for 24 h. The expression of CCR4 was then determined by FACS analysis.

The test system of experiment [3] is C-41 cervical cancer cell line. Nature of the experiment: trans-well migration assay of C-41 cells towards CCR4 ligands. It is filed as cell-based, human. As to conditions: for chemotactic response of C-41 cells: trans-well migration assay. Here is the method:
(§1) The cervical cancer cell line C-41 (ATCC, Rockville, Md, USA) was cultured in DMEM medium supplemented with 10% FCS. […] Proliferation and migration were assessed using methods described previously.
To investigate the biological significance of CCR4 expression on cervical cancer cells a number of cervical cancer cell lines (CaSki, Me180, Hela-Ohio, Hela-S3, Siha, C33A, C41-1) were screened for CCR4 expression. The cell line C-41 expressed cell surface CCR4 in a constitutive manner (FIG. 6A). Using FACS analysis it was shown that C-41 cells expressed cell surface CCR4. […] Following stimulation with 100 ng/ml CCL22, cell surface CCR4 protein was internalized on C-41 cells after 2 hours and returned back to the surface after 3 hours (FIG. 6B).

Experiment [4] deals with C-41 cervical cancer cell line. Briefly: C-41 growth/proliferation under suboptimal conditions after ligand stimulation. In kind it is cell-based, human. To be noted: 6 days.
Another experiment deals with T1, CCR4 (Homo sapiens, UniProt P51679).
T1 construct: The cell line C-41 expressed cell surface CCR4 in a constitutive manner; host or cells: C-41 cervical cancer cell line
T1 sequence (P51679 1-360): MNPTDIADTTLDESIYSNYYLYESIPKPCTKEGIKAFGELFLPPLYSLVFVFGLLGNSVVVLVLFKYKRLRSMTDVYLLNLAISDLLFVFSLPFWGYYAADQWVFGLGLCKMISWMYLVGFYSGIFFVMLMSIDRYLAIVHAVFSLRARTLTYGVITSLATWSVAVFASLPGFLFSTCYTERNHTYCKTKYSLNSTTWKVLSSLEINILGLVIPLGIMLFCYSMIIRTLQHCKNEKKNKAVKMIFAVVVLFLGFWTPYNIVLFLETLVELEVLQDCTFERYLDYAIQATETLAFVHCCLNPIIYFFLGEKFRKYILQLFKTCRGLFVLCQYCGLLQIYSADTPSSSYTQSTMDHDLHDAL
Nature of the experiment: CCR4 expression/internalization on C-41 cells after ligand stimulation (FACS). In kind it is cell-based. As to conditions: stimulation with 100 ng/ml ligand. As to the method:
Values are the mean±SD of 10 determinations,*P <0.05, **P<0.01.
as §1
To investigate the biological significance of CCR4 expression on cervical cancer cells a number of cervical cancer cell lines (CaSki, Me180, Hela-Ohio, Hela-S3, Siha, C33A, C41-1) were screened for CCR4 expression.

Entries after “also recorded” stand apart in the source; their conditions may differ.

The values below come from patent US10261099B2, “Cancer marker and therapeutic target” (Cancer Research Technology Ltd., priority 2007, dated 2019).

In the case of TNF-α, the “influence on CCR4 expression” value in experiment [1] is listed as “None of these influenced CCR4 expression”.
As for TGF-β, in experiment [1], the “influence on CCR4 expression” value was “None of these influenced CCR4 expression”. In addition, the “CCR4 expression on C41 cells after cytokine stimulation” value in experiment [2] was “upregulated in terms of percentage of positive cells”.

B1: IL-4: cytokine known to be present in the cervical microenvironment (protein, UniProt P05112 25-153, looked up)
Interleukin-4: HKCDITLQEIIKTLNSLTEQKTLCTELTVTDIFAASKNTTEKETFCRAATVLRQFYSHHEKDTRCLGATAQQFHRHKQLIRFLKRLDRNLWGLAGLNSCPVKEANQSTLENFLERLKTIMREKYSKCSS
Turning to B1, in experiment [1], the “influence on CCR4 expression” value was “None of these influenced CCR4 expression”.

B2: CCL17: chemokine ligand of CCR4 (PeproTech) used to stimulate C-41 cells (protein, UniProt Q92583 24-94, looked up)
C-C motif chemokine 17: ARGTNVGRECCLEYFKGAIPLRKLKTWYQTSEDCSRDAIVFVTVQGRAICSDPNNKRVKNAVKYLQSLERS
As for B2, the “migration of C-41 cells” value in experiment [3] (10 ng/ml), in experiment [3] (100 ng/ml) and in experiment [3] (1000 ng/ml) was “induced significant migration” in each case. For the same molecule, the “chemotactic response of C-41 cells” value in experiment [3] is recorded as “typical bell-shaped chemotactic response”. Besides, the “C-41 cell growth / proliferation” value in experiment [4] (1 ng/ml) is “not”; in experiment [4] (10 ng/ml), “significant growth increase; also recorded: increased proliferation”; in experiment [4] (100 ng/ml), “significant growth increase; also recorded: increased proliferation”. In addition, in the experiment with CCR4, the “cell surface CCR4 returned back to the surface after” value was 3 h.

B3: IFN-γ: cytokine known to be present in the cervical microenvironment (protein, UniProt P01579 24-161, looked up)
Interferon gamma: QDPYVKEAENLKKYFNAGHSDVADNGTLFLGILKNWKEESDRKIMQSQIVSFYFKLFKNFKDDQSIQKSVETIKEDMNVKFFNSNKKKRDDFEKLTNYSVTDLNVQRKAIHELIQVMAELSPAAKTGKRKRSQMLFRG
On to B3, for which, in experiment [1], the “influence on CCR4 expression” value was “None of these influenced CCR4 expression”.

B4: IL-10: cytokine commonly present in a tumour, used to stimulate C41 cells (protein, UniProt P22301 19-178, looked up)
Interleukin-10: SPGQGTQSENSCTHFPGNLPNMLRDLRDAFSRVKTFFQMKDQLDNLLLKESLLEDFKGYLGCQALSEMIQFYLEEVMPQAENQDPDIKAHVNSLGENLKTLRLRLRRCHRFLPCENKSKAVEQVKNAFNKLQEKGIYKAMSEFDIFINYIEAYMTMKIRN
Regarding B4, the “influence on CCR4 expression” value in experiment [1] is listed as “None of these influenced CCR4 expression”. In experiment [2], the “CCR4 expression on C41 cells after cytokine stimulation” value is listed as “upregulated in terms of percentage of positive cells”.

B5: CCL22: chemokine ligand of CCR4 (PeproTech) used to stimulate C-41 cells (protein, UniProt O00626 25-93, looked up)
C-C motif chemokine 22: GPYGANMEDSVCCRDYVRYRLPLRVVKHFYWTSDSCPRPGVVLLTFRDKEICADPRVPWVKMILNKLSQ
Take B5: in experiment [3], the “chemotactic response of C-41 cells” value was “typical bell-shaped chemotactic response”. Further, the “C-41 cell growth / proliferation” value in experiment [4] (1 ng/ml) was “significant increased growth; also recorded: simulated C-41 cell growth”; in experiment [4] (10 ng/ml) it was “not”; in experiment [4] (100 ng/ml), “significant increased growth; also recorded: simulated C-41 cell growth”. The “cell surface CCR4 protein internalized on C-41 cells after” value with CCR4 came to 2 h. Moreover, the “cell surface CCR4 returned back to the surface after” value with CCR4 worked out at 3 h.
